# According to patent US20200131224A1, “Methods for Synthesis of Radionuclide Complex” (Advanced Accelerator Applications (Italy) S.R.L., priority 2018, published 2020):
# Assay: Radiochemical purity (RCP) of the Drug Substance 72 hours from end of synthesis
# Type: physicochemical
# Conditions: radiochemical purity 72 hours from end of synthesis; reaction time 5 min; reactor temperature 80 or 100 °C by batch
# Description: The reaction temperature has been tested between 80° C. and 100° C. for labeling times of 5 minutes.
row,Compound,RCP (%) t72 h
1,"C[C@@H](O)[C@H](NC(=O)[C@@H]1CSSC[C@H](NC(=O)[C@@H](Cc2ccccc2)NC(=O)CN2CCN(CC(=O)[O-])CCN(CC(=O)[O-])CCN(CC(=O)[O-])CC2)C(=O)N[C@@H](Cc2ccc(O)cc2)C(=O)N[C@H](Cc2c[nH]c3ccccc23)C(=O)N[C@@H](CCCCN)C(=O)N[C@@H]([C@@H](C)O)C(=O)N1)C(=O)O.[177Lu+3] [LT141013B-03, ^177Lu-DOTA0-Tyr^3-Octreotate]",95.9%
2,"C[C@@H](O)[C@H](NC(=O)[C@@H]1CSSC[C@H](NC(=O)[C@@H](Cc2ccccc2)NC(=O)CN2CCN(CC(=O)[O-])CCN(CC(=O)[O-])CCN(CC(=O)[O-])CC2)C(=O)N[C@@H](Cc2ccc(O)cc2)C(=O)N[C@H](Cc2c[nH]c3ccccc23)C(=O)N[C@@H](CCCCN)C(=O)N[C@@H]([C@@H](C)O)C(=O)N1)C(=O)O.[177Lu+3] [LT141013C-03, ^177Lu-DOTA0-Tyr^3-Octreotate]",95.8%
